Holding throughout (assay): cell-based or functional assay
Experiment [1] concerns the target HIV-1 MGRM-AG-005 Env (pseudovirus) (HIV-1).
Experiment [2] concerns the target HIV-1 Env of isolate MGRM-AE-001 (subtype AE) (HIV-1).
Experiment [3] concerns the target HIV-1 Env of isolate 92TH021 (subtype AE) (HIV-1).
In experiment [4] the target is HIV-1 Env of isolate MGRM-G-015 (HIV-1).
Experiment [5] concerns the target HIV-1 Env of isolate MGRM-G-006 (HIV-1).
Experiment [6] has as its target HIV-1 Env of isolate VLGCA1 (subtype A) (HIV-1).
Experiment [7] concerns the target HIV-1 APV13 Env (pseudovirus) (HIV-1).
Experiment [8] deals with HIV-1 Env of isolate MGRM-F1-021 (HIV-1).
For experiment [9], the target named is HIV-1 Env of isolate MGRM-D-016 (pseudovirus) (HIV-1).
The target in experiment [10] is HIV-1 Env of isolate 92UG046 (pseudovirus) (HIV-1).
For experiment [11], the target named is HIV-1 Env of pseudovirus isolate MGRM-G-024 (HIV-1).
Experiment [12] addresses HIV-1 Env of isolate MGRM-AG-011 (HIV-1).
Experiment [13] deals with HIV-1 Env of pseudovirus isolate MGRM-G-025 (HIV-1).
Experiment [14] deals with HIV-1 Env of isolate MGRM-D-002 (pseudovirus) (HIV-1).
The target in experiment [15] is HIV-1 94UG103 Env (pseudovirus, clade A) (HIV-1).
The target in experiment [16] is HIV-1 Env of isolate MG RM-D-021 (HIV-1).
Experiment [17] addresses HIV-1 Env of isolate MGRM-D-019 (clade D pseudovirus) (HIV-1).
Experiment [18] has as its target HIV-1 Env of pseudovirus MGRM-G-014 (HIV-1, clade G isolate MGRM-G-014).
In experiment [19] the target is HIV-1 envelope glycoprotein (Env) of isolate MGRM-A-003, clade A (HIV-1).
The target in experiment [20] is HIV-1 Env of pseudovirus MGRM-Chronic-B-018 (HIV-1).
Experiment [21] addresses HIV-1 Env of pseudovirus MGRM-AG-012 (clade CRF_AG) (HIV-1).
Experiment [22] addresses HIV-1 Env of isolate 93IN905 (HIV-1).
Experiment [23] addresses HIV-1 Env of pseudovirus MGRM-G-011 (HIV-1, clade G isolate MGRM-G-011).
Experiment [24] addresses HIV-1 Env of pseudovirus MGRM-G-015 (HIV-1, clade G isolate MGRM-G-015).
For experiment [25], the target named is HIV-1 envelope glycoprotein (Env) of isolate 92RW026, clade A (HIV-1).
For experiment [26], the target named is HIV-1 Env of isolate MGRM-D-024 (clade D pseudovirus) (HIV-1).

Chain of 4980_N08 (PGT-143) (antibody) (VH): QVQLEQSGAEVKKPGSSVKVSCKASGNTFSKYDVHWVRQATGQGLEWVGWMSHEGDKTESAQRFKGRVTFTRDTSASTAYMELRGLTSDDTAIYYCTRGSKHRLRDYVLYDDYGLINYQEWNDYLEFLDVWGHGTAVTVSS
Chain of 4980_N08 (PGT-143) (antibody) (VL): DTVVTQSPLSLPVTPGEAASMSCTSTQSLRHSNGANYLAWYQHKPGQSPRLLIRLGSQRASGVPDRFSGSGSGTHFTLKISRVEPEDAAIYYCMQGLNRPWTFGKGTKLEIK
Chain of 4995_E20 (PGT-142) (antibody) (VH): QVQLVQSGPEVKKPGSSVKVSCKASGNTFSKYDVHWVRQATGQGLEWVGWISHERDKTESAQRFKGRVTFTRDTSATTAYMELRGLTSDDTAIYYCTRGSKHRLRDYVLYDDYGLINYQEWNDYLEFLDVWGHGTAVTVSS
Chain of 4995_E20 (PGT-142) (antibody) (VL): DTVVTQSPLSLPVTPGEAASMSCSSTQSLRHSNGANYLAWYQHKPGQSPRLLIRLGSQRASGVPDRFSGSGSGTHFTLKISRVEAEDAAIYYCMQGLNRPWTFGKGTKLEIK
Chain of 4993_K13 (PGT-141) (antibody) (VH): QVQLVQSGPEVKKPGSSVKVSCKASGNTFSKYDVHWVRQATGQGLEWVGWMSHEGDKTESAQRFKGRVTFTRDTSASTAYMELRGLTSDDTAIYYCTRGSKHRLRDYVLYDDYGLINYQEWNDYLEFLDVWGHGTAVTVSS
Chain of 4970_K22 (PGT-144) (antibody) (VH): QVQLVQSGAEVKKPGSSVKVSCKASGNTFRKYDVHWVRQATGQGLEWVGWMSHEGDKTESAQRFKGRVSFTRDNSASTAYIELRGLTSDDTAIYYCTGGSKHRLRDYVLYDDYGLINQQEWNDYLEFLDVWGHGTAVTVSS
Chain of 4970_K22 (PGT-144) (antibody) (VL): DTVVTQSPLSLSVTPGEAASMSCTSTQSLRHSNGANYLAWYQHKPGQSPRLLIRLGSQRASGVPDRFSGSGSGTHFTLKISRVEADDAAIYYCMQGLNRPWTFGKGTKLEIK

Consider 4970_K22 (PGT-144) (antibody), for which the IC50 (neutralizing activity, pseudovirus) in experiment [1] and in [7] was more than 10 µg/mL in each case. Moreover, the IC50 (µg/mL), pseudovirus neutralization in [2] was more than 50 µg/mL; in experiment [3], 0.052 µg/mL; in experiment [4], more than 50 µg/mL; in [5] it was 3.84 µg/mL; in experiment [6], more than 50 µg/mL.

Take 4980_N08 (PGT-143) (antibody): the values for the IC50 (neutralizing activity, pseudovirus) in experiment [1] and in experiment [7] were 0.244 µg/mL and more than 10 µg/mL, respectively. Further, the IC50 (µg/mL), pseudovirus neutralization in [2] was more than 50 µg/mL; in [3] it was 0.003 µg/mL; in experiment [4] it was more than 50 µg/mL; in [5] it was 0.031 µg/mL; in experiment [6], 17.4 µg/mL.

Usually IC50 stands for the concentration that gives 50% inhibition. A higher IC50 goes with weaker potency. 5145_B14 (PGT-127) (antibody): the IC50 (µg/mL), pseudovirus neutralization was more than 50 µg/mL in experiment [8], more than 50 µg/mL in experiment [11] and 19.3 µg/mL in experiment [13]. Besides, the IC50, pseudovirus neutralization in [9] was more than 50 µg/mL; in experiment [10] it was more than 50 µg/mL; in [14], 0.6 µg/mL. Also, the IC50 in experiment [12] was more than 50 µg/mL.

Regarding 4995_E20 (PGT-142) (antibody), the IC50 (neutralizing activity, pseudovirus) in experiment [1] is 0.22 µg/mL; in experiment [7] it was more than 10 µg/mL. The IC50 (µg/mL), pseudovirus neutralization in experiment [2] was more than 50 µg/mL; in experiment [3], 0.002 µg/mL; in [4], more than 50 µg/mL; in experiment [5], 0.019 µg/mL; in experiment [6], 2.75 µg/mL.

Consider 5123_A06 (PGT-125) (antibody), for which the neutralization IC50 (pseudovirus) in experiment [1] is more than 10 µg/mL; in experiment [7], 0.0128 µg/mL. Further, the IC50 (µg/mL), pseudovirus neutralization in experiment [8], in experiment [11] and in [13] was more than 50 µg/mL each time. The figures for the IC50, pseudovirus neutralization in experiment [9], in experiment [10] and in experiment [14] were 0.12 µg/mL, more than 50 µg/mL and 0.118 µg/mL, respectively. The IC50 in experiment [12] is more than 50 µg/mL. This substance came in with an IC50 neutralization in [15] of 0.0124 µg/mL.

Substance 4838_L06 (PGT-121) (antibody) returned an IC50 (µg/mL), pseudovirus neutralization in experiment [8] of 0.099 µg/mL. Also, the figures for the IC50, pseudovirus neutralization in [9], in experiment [10] and in experiment [14] were more than 50 µg/mL, more than 50 µg/mL and 0.006 µg/mL, respectively. In experiment [12], the IC50 was more than 50 µg/mL.

As for VRC01 (antibody), the 50% inhibitory concentration (IC50) in experiment [8] amounted to 0.039 µg/mL; in experiment [16] it was 33.4 µg/mL. Also, the IC50 (µg/mL), pseudovirus neutralization in experiment [2] was 0.167 µg/mL; in [3] it was 0.616 µg/mL; in experiment [4] it was 0.548 µg/mL; in experiment [5], 0.055 µg/mL; in experiment [6], 0.163 µg/mL.

As to 4993_K13 (PGT-141) (antibody), the IC50 (neutralizing activity, pseudovirus) in experiment [1] is 0.392 µg/mL; in experiment [7] it was more than 10 µg/mL. The IC50 (µg/mL), pseudovirus neutralization was more than 50 µg/mL in experiment [2]; 0.001 µg/mL in experiment [3]; more than 50 µg/mL in [4]; 0.043 µg/mL in [5]; 2.07 µg/mL in experiment [6].

Consider 1496_C09 (PG9) (TCN-109) (antibody), for which the IC50 (µg/ml), pseudovirus neutralization came to 0.03 µg/mL in [17]; 6.32 µg/mL in experiment [18]; 0.65 µg/mL in experiment [19]; 0.16 µg/mL in [20]; 0.19 µg/mL in [23]; 1.51 µg/mL in [24]. The IC50 (µg/ml), pseudovirus neutralization in [25] is 0.27 µg/mL; in [26], 0.03 µg/mL. The half-inhibitory concentration (IC50) in experiment [21] stood at 1.37 µg/mL; in experiment [22] it was 0.03 µg/mL. The values for the IC50 (µg/mL), pseudovirus neutralization in experiment [4] and in experiment [5] were 6.6 µg/mL and 1.98 µg/mL, respectively. The substance also displayed an IC50 neutralization in experiment [15] of 0.31 µg/mL.

As to PGV04 (antibody), the IC50 (µg/mL), pseudovirus neutralization is 0.333 µg/mL in experiment [4] and 0.083 µg/mL in [5].
